4 molecules from patent WO2021237516A1 (dated 2021) can be followed below.

For one assay, the target named is SARS-CoV-2 S1 (SARS-CoV-2, UniProt P0DTC2 16-685).
The target in another assay is SARS-CoV S1 (SARS-CoV, UniProt P59594 14-667). The assay is described as follows: competition ELISA as in Example 3.2: blocking of SARS-CoV S1 binding to hACE2.

B1: Ab2001.10 (antibody, V domains shown)
VH: QVQLVQSGAEVKKPGASVKVSCKASGDTFSSFDINWVRQATGQGLEWMGWMHAGSGNAGYAQKFQGRVTMTRDTSISTAYMELSSLRSEDTAVYYCANYVPHGAFQIWGQGTMVTVSS
VL: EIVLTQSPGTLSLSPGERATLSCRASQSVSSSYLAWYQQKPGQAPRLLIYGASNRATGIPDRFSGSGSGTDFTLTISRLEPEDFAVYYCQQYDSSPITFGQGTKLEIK
In the assay with SARS-CoV-2 S1, B1 showed a Kd of 4.21 nM.

B2: Ab2001.16 (bispecific antibody, V domains shown)
VH 1: EVQLVESGGGLVQPGGSLRLSCAASGFSFSNSDMHWVRQATGKGLEWVSAIGDSGDTYYSDSVKGRFTISRENAKSSLYLQMNSLRAEDTAVYYCARAANWGWDWYFDLWGRGTLVTVSS
VH 2: EVQLVETGGGLIQPGGSLRLSCAASGFTVSSNYMSWVRQAPGKGLEWVSVIYSGGSTYYADSVKGRFTISRDNSKNTLYLQMNSLRAEDTAVYYCARDAGPYGMDVWGQGTTVTVSS
VL: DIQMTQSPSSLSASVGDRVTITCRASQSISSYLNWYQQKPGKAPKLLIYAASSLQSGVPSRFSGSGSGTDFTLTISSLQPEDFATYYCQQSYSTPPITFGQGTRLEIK
As to B2, the Kd with SARS-CoV-2 S1 came to 2.39 nM.

B3: Ab2001.11 (antibody, V domains shown)
VH: B2 VH 1
VL: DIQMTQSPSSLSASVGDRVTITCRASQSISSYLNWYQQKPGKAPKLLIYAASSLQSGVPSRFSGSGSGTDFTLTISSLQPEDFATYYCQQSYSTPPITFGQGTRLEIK
The molecule B3 registered an IC50 in the assay with SARS-CoV S1 of 304 nM.

B4: Ab2001.08 (antibody, V domains shown)
VH: QVQLVQSGAEVKKPGSSVKVSCKASGGTFSSYAISWVRQAPGQGLEWMGRIIPIFGTANYAQKFQGRVTITADESTSTAYMELSSLRSEDTAVYYCASLASYSSGWEDVFDIWGQGTMVTVSS
VL: DIQMTQSPSSLSASVGDRVTITCRASQGISSWLAWYQQKPGKAPKLLIYDASNLETGVPSRFSGSGSGTDFTFTISSLQPEDIATYYCQQYDNLPLTFGGGTKVEIK
In the assay with SARS-CoV-2 S1, B4 displayed a Kd of 2.93 nM.
